The labels stand for the following.
B1: 177-C6 (scFv, V domains shown)
VH: QVQLVQSGGGVVQPGRSLRLSCAASGFTFSSYGMHWVRQAPGKGLEWVAFIRYDGSNKYYADSVKGRFTISRDNSKNTLYLQMKSLRAEDTAVYYCKTHGSHDNWGQGTMVTVSS
VL: SYVLTQPPSVSGTPGQRVTISCSGGRSNIGSNTVKWYQQLPGTAPKLLIYGNDQRPSGVPDRFSGSKSGTSASLAITGVQAEDEADYYCQSYDRGTHPVPAFGTGTKVTVL
notes: scFv
B2: B3 (scFv, V domains shown)
VH: QVQLVQSGGGVVQPGRSLRLSCAASGFTFSSYGMHWVRQAPGKGLEWVAFIRYDGSNKYYADSVKGRFTISRDNSKNTLYLQMKSLRAEDTAVYYCKTHGSHDNWGQGTMVTVSS
VL: SYVLTQPPSVSGTPGQRVTISCSGGRSNIGSNTVKWYQQLPGTAPKLLIYGNDQRPSGVPDRFSGSKSGTSASLAITGVQAEDEADYYCQSYDRGTPSYPTFGTGTKVTVL
notes: scFv
B3: A4 (scFv, V domains shown)
VH: QVQLVQSGGGVVQPGRSLRLSCAASGFTFSSYGMHWVRQAPGKGLEWVAFIRYDGSNKYYADSVKGRFTISRDNSKNTLYLQMKSLRAEDTAVYYCKTHGSHDNWGQGTMVTVSS
VL: SYVLTQPPSVSGTPGQRVTISCSGGRSNIGSNTVKWYQQLPGTAPKLLIYGNDQRPSGVPDRFSGSKSGTSASLAITGVQAEDEADYYCQSYDRGRNPALTFGTGTKVTVL
notes: scFv
B4: A11 (scFv, V domains shown)
VH: QVQLVQSGGGVVQPGRSLRLSCAASGFTFSSYGMHWVRQAPGKGLEWVAFIRYDGSNKYYADSVKGRFTISRDNSKNTLYLQMKSLRAEDTAVYYCKTHGSHDNWGQGTMVTVSS
VL: SYVLTQPPSVSGTPGQRVTISCSGGRSNIGSNTVKWYQQLPGTAPKLLIYGNDQRPSGVPDRFSGSKSGTSASLAITGVQAEDEADYYCQSYDRGTFPSPQFGTGTKVTVL
notes: scFv
B5: A10 (scFv, V domains shown)
VH: QVQLVQSGGGVVQPGRSLRLSCAASGFTFSSYGMHWVRQAPGKGLEWVAFIRYDGSNKYYADSVKGRFTISRDNSKNTLYLQMKSLRAEDTAVYYCKTHGSHDNWGQGTMVTVSS
VL: SYVLTQPPSVSGTPGQRVTISCSGGRSNIGSNTVKWYQQLPGTAPKLLIYGNDQRPSGVPDRFSGSKSGTSASLAITGVQAEDEADYYCQSYDRGNSPATVFGTGTKVTVL
notes: scFv
B6: A6 (scFv, V domains shown)
VH: QVQLVQSGGGVVQPGRSLRLSCAASGFTFSSYGMHWVRQAPGKGLEWVAFIRYDGSNKYYADSVKGRFTISRDNSKNTLYLQMKSLRAEDTAVYYCKTHGSHDNWGQGTMVTVSS
VL: SYVLTQPPSVSGTPGQRVTISCSGGRSNIGSNTVKWYQQLPGTAPKLLIYGNDQRPSGVPDRFSGSKSGTSASLAITGVQAEDEADYYCQSYDRGTHPWLHFGTGTKVTVL
notes: scFv
B7: 177-G6 (scFv, V domains shown)
VH: QVQLVQSGGGVVQPGRSLRLSCAASGFTFSSYGMHWVRQAPGKGLEWVAFIRYDGSNKYYADSVKGRFTISRDNSKNTLYLQMKSLRAEDTAVYYCKTHGSHDNWGQGTMVTVSS
VL: SYVLTQPPSVSGTPGQRVTISCSGGRSNIGSNTVKWYQQLPGTAPKLLIYGNDQRPSGVPDRFSGSKSGTSASLAITGVQAEDEADYYCQSYDRGTHPTMIFGTGTKVTVL
notes: scFv
B8: B5 (scFv, V domains shown)
VH: QVQLVQSGGGVVQPGRSLRLSCAASGFTFSSYGMHWVRQAPGKGLEWVAFIRYDGSNKYYADSVKGRFTISRDNSKNTLYLQMKSLRAEDTAVYYCKTHGSHDNWGQGTMVTVSS
VL: SYVLTQPPSVSGTPGQRVTISCSGGRSNIGSNTVKWYQQLPGTAPKLLIYGNDQRPSGVPDRFSGSKSGTSASLAITGVQAEDEADYYCQSYDRGQPHAVLFGTGTKVTVL
notes: scFv
B9: A3 (scFv, V domains shown)
VH: QVQLVQSGGGVVQPGRSLRLSCAASGFTFSSYGMHWVRQAPGKGLEWVAFIRYDGSNKYYADSVKGRFTISRDNSKNTLYLQMKSLRAEDTAVYYCKTHGSHDNWGQGTMVTVSS
VL: SYVLTQPPSVSGTPGQRVTISCSGGRSNIGSNTVKWYQQLPGTAPKLLIYGNDQRPSGVPDRFSGSKSGTSASLAITGVQAEDEADYYCQSYDRGYPRNILFGTGTKVTVL
notes: scFv
B10: B2 (scFv, V domains shown)
VH: QVQLVQSGGGVVQPGRSLRLSCAASGFTFSSYGMHWVRQAPGKGLEWVAFIRYDGSNKYYADSVKGRFTISRDNSKNTLYLQMKSLRAEDTAVYYCKTHGSHDNWGQGTMVTVSS
VL: SYVLTQPPSVSGTPGQRVTISCSGGRSNIGSNTVKWYQQLPGTAPKLLIYGNDQRPSGVPDRFSGSKSGTSASLAITGVQAEDEADYYCQSYDRGRPRHALFGTGTKVTVL
notes: scFv
B11: 177-H10 (scFv, V domains shown)
VH: QVQLVQSGGGVVQPGRSLRLSCAASGFTFSSYGMHWVRQAPGKGLEWVAFIRYDGSNKYYADSVKGRFTISRDNSKNTLYLQMKSLRAEDTAVYYCKTHGSHDNWGQGTMVTVSS
VL: SYVLTQPPSVSGTPGQRVTISCSGGRSNIGSNTVKWYQQLPGTAPKLLIYGNDQRPSGVPDRFSGSKSGTSASLAITGVQAEDEADYYCQSYDRGTHPTMYFGTGTKVTVL
notes: scFv
B12: A1 (scFv, V domains shown)
VH: QVQLVQSGGGVVQPGRSLRLSCAASGFTFSSYGMHWVRQAPGKGLEWVAFIRYDGSNKYYADSVKGRFTISRDNSKNTLYLQMKSLRAEDTAVYYCKTHGSHDNWGQGTMVTVSS
VL: SYVLTQPPSVSGTPGQRVTISCSGGRSNIGSNTVKWYQQLPGTAPKLLIYGNDQRPSGVPDRFSGSKSGTSASLAITGVQAEDEADYYCQSYDRGLPRLTHFGTGTKVTVL
notes: scFv
B13: A9 (scFv, V domains shown)
VH: QVQLVQSGGGVVQPGRSLRLSCAASGFTFSSYGMHWVRQAPGKGLEWVAFIRYDGSNKYYADSVKGRFTISRDNSKNTLYLQMKSLRAEDTAVYYCKTHGSHDNWGQGTMVTVSS
VL: SYVLTQPPSVSGTPGQRVTISCSGGRSNIGSNTVKWYQQLPGTAPKLLIYGNDQRPSGVPDRFSGSKSGTSASLAITGVQAEDEADYYCQSYDRGPARTSPFGTGTKVTVL
notes: scFv
B14: A2 (scFv, V domains shown)
VH: QVQLVQSGGGVVQPGRSLRLSCAASGFTFSSYGMHWVRQAPGKGLEWVAFIRYDGSNKYYADSVKGRFTISRDNSKNTLYLQMKSLRAEDTAVYYCKTHGSHDNWGQGTMVTVSS
VL: SYVLTQPPSVSGTPGQRVTISCSGGRSNIGSNTVKWYQQLPGTAPKLLIYGNDQRPSGVPDRFSGSKSGTSASLAITGVQAEDEADYYCQSYDRGPYHPIRFGTGTKVTVL
notes: scFv
B15: B7 (scFv, V domains shown)
VH: QVQLVQSGGGVVQPGRSLRLSCAASGFTFSSYGMHWVRQAPGKGLEWVAFIRYDGSNKYYADSVKGRFTISRDNSKNTLYLQMKSLRAEDTAVYYCKTHGSHDNWGQGTMVTVSS
VL: SYVLTQPPSVSGTPGQRVTISCSGGRSNIGSNTVKWYQQLPGTAPKLLIYGNDQRPSGVPDRFSGSKSGTSASLAITGVQAEDEADYYCQSYDRGDSNHDLFGTGTKVTVL
notes: scFv
B16: A5 (scFv, V domains shown)
VH: QVQLVQSGGGVVQPGRSLRLSCAASGFTFSSYGMHWVRQAPGKGLEWVAFIRYDGSNKYYADSVKGRFTISRDNSKNTLYLQMKSLRAEDTAVYYCKTHGSHDNWGQGTMVTVSS
VL: SYVLTQPPSVSGTPGQRVTISCSGGRSNIGSNTVKWYQQLPGTAPKLLIYGNDQRPSGVPDRFSGSKSGTSASLAITGVQAEDEADYYCQSYDRGTHPSMLFGTGTKVTVL
notes: scFv
B17: A7 (scFv, V domains shown)
VH: QVQLVQSGGGVVQPGRSLRLSCAASGFTFSSYGMHWVRQAPGKGLEWVAFIRYDGSNKYYADSVKGRFTISRDNSKNTLYLQMKSLRAEDTAVYYCKTHGSHDNWGQGTMVTVSS
VL: SYVLTQPPSVSGTPGQRVTISCSGGRSNIGSNTVKWYQQLPGTAPKLLIYGNDQRPSGVPDRFSGSKSGTSASLAITGVQAEDEADYYCQSYDRGHNNFSPFGTGTKVTVL
notes: scFv
B18: A12 (scFv, V domains shown)
VH: QVQLVQSGGGVVQPGRSLRLSCAASGFTFSSYGMHWVRQAPGKGLEWVAFIRYDGSNKYYADSVKGRFTISRDNSKNTLYLQMKSLRAEDTAVYYCKTHGSHDNWGQGTMVTVSS
VL: SYVLTQPPSVSGTPGQRVTISCSGGRSNIGSNTVKWYQQLPGTAPKLLIYGNDQRPSGVPDRFSGSKSGTSASLAITGVQAEDEADYYCQSYDRGTTPRPMFGTGTKVTVL
notes: scFv
B19: B8 (scFv, V domains shown)
VH: QVQLVQSGGGVVQPGRSLRLSCAASGFTFSSYGMHWVRQAPGKGLEWVAFIRYDGSNKYYADSVKGRFTISRDNSKNTLYLQMKSLRAEDTAVYYCKTHGSHDNWGQGTMVTVSS
VL: SYVLTQPPSVSGTPGQRVTISCSGGRSNIGSNTVKWYQQLPGTAPKLLIYGNDQRPSGVPDRFSGSKSGTSASLAITGVQAEDEADYYCQSYDRGHTAHLYFGTGTKVTVL
notes: scFv

In the assay the target is T1, human IL-12 (human, UniProt P29459 23-219; P29460 23-328).
T1 construct: recombinant human IL-12 heterodimer (p35/p40, disulfide-linked); also called hIL-12; rhIL-12
T1 sequence (looked up) 1: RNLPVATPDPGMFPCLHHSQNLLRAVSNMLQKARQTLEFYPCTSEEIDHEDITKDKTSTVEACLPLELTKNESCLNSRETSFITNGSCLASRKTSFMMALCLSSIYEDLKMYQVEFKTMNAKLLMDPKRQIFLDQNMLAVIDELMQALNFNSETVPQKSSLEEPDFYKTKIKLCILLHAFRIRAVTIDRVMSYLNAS
T1 sequence (looked up) 2: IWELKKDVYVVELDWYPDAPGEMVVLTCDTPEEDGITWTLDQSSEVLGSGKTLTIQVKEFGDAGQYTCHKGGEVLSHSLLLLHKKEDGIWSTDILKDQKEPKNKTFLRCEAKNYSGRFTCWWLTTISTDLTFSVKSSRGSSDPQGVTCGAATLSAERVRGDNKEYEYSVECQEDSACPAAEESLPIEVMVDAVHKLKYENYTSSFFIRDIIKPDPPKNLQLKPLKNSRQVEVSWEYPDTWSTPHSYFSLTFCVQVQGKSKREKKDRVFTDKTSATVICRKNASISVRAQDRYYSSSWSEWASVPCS
The experiment in a line: SPR (BIAcore), IL-12 chip. From the text:
The system utilizes the optical properties of SPR to detect alterations in protein concentrations within a dextran biosensor matrix. Proteins are covalently bound to the dextran matrix at known concentrations. […] To determine the off rate (koff), on rate (kₒₙ), association rate (Ka) and dissociation rate (Kd) constants, BIAcore kinetic evaluation software (version 2.1) was used.
For orientation: In SPR one partner is held on a chip, and binding of the other changes the refractive index at the surface.
B1: the dissociation rate constant (koff) (in general, the first-order rate constant of dissociation) stood at 0.000794 s⁻¹.

On to B2, for which the koff worked out at 0.00412 s⁻¹.

B3: the koff was 0.00147 s⁻¹. This koff is about 2.8-fold lower than that of the molecule before.

Consider B4, for which the koff came to 0.00207 s⁻¹. The koff values of the last two molecules are within 1.5-fold of each other.

B5 displayed a koff of 0.00187 s⁻¹.

B6 registered a koff of 0.00187 s⁻¹.

In turn, B7 came in with a koff of 0.00055 s⁻¹.

B8 came in with a koff of 0.00304 s⁻¹.

As to B9, the koff is 0.00251 s⁻¹.

B10 yielded a koff of 0.00361 s⁻¹.

Consider B11, for which the koff was found to be 0.00344 s⁻¹.

Regarding B12, the koff is 0.00566 s⁻¹.

For the molecule B13, the koff was found to be 0.00798 s⁻¹.

With B14, the koff is 0.0038 s⁻¹.

Consider B15, for which the koff was 0.00545 s⁻¹.

Consider B16, for which the dissociation rate constant (koff) was found to be 0.00112 s⁻¹. This koff lies about 4.9-fold lower than the previous one.

The molecule B17 yielded a koff of 0.00395 s⁻¹. Against the preceding molecule, the koff is about 3.5-fold higher.

Turning to B18, the koff is 0.00143 s⁻¹.

Regarding B19, the koff came out at 0.0024 s⁻¹. Compared with the last molecule, the koff is about 1.7-fold higher.

Values taken from US20150037348A1 (AbbVie / Abbott, published 2015).
